# Molecular target: T1, FLAG epitope-tagged holoreceptor of human type 1 insulin-like growth factor receptor (hIGFR) (human, UniProt P08069 31-1367)
# T1 construct: The holoreceptor was captured on 96 well plates coated with anti-FLAG monoclonal antibody; also called IGF-R1; IGF-1R
# Test: competitive displacement of 125I-labeled human insulin from plate-captured FLAG-tagged hIGFR
# T1 sequence (P08069 31-1367 limits assumed): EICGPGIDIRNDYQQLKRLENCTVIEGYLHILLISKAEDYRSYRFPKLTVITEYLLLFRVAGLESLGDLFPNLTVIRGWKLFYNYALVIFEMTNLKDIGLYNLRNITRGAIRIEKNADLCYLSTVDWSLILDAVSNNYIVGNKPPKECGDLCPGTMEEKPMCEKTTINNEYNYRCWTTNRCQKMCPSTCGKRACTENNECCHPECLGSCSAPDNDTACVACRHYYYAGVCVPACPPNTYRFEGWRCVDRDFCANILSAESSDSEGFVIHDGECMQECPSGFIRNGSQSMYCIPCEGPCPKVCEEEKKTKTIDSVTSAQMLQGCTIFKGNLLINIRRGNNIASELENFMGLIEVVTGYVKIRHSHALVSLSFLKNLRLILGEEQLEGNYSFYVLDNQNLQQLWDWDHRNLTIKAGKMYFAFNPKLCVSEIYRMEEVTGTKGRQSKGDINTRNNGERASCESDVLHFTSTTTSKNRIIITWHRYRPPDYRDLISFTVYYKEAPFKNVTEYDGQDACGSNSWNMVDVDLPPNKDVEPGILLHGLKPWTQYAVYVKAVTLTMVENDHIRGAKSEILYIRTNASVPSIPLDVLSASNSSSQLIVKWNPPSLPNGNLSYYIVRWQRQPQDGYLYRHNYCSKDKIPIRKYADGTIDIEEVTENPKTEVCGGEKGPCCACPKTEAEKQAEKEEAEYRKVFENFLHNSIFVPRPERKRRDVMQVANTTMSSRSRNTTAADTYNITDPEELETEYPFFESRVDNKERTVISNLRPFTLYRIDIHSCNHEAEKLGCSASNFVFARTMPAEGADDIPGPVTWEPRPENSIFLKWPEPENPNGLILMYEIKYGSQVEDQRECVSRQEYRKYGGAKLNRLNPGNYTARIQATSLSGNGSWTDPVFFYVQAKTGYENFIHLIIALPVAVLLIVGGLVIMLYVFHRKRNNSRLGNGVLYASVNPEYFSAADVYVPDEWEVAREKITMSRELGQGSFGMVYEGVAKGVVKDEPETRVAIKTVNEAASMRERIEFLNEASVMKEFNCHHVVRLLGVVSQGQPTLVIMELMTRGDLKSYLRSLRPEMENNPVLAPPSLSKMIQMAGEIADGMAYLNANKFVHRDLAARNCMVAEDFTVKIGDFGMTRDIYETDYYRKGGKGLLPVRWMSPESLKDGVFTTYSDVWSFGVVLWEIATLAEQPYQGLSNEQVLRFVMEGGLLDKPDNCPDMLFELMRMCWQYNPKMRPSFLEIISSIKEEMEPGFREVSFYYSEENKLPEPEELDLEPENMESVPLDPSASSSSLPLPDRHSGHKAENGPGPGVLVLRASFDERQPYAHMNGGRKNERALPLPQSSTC
binder,measurement,value
"des-[B1, B2], Glu^B3, His^A8, Glu^A14, Gln^A17, des-B30-insulin (T-0706) (ligand, not fully specified, Formulated without zinc; also called HA8 EA14 QA17 des[B1-B2]; EB3 desB30) chain 1: GIVEQCCHSICSLEQLQNYCN chain 2: EQHLCGSHLVEALYLVCGERGFFYTPK",Binding Affinity,0.16
same,"IGF1-R (Rel. Aff.), relative to insulin lispro",18%

# — patent US20220112262A1 (CASE WESTERN RESERVE UNIVERSITY, published 2022)
